The values that follow come from patent US6004757.

Where no end group is shown, it is not given here.

The target in assay [1] is chicken pp60^v-src (chicken).

Sequence of GST-c-abl (P00519 whole entry): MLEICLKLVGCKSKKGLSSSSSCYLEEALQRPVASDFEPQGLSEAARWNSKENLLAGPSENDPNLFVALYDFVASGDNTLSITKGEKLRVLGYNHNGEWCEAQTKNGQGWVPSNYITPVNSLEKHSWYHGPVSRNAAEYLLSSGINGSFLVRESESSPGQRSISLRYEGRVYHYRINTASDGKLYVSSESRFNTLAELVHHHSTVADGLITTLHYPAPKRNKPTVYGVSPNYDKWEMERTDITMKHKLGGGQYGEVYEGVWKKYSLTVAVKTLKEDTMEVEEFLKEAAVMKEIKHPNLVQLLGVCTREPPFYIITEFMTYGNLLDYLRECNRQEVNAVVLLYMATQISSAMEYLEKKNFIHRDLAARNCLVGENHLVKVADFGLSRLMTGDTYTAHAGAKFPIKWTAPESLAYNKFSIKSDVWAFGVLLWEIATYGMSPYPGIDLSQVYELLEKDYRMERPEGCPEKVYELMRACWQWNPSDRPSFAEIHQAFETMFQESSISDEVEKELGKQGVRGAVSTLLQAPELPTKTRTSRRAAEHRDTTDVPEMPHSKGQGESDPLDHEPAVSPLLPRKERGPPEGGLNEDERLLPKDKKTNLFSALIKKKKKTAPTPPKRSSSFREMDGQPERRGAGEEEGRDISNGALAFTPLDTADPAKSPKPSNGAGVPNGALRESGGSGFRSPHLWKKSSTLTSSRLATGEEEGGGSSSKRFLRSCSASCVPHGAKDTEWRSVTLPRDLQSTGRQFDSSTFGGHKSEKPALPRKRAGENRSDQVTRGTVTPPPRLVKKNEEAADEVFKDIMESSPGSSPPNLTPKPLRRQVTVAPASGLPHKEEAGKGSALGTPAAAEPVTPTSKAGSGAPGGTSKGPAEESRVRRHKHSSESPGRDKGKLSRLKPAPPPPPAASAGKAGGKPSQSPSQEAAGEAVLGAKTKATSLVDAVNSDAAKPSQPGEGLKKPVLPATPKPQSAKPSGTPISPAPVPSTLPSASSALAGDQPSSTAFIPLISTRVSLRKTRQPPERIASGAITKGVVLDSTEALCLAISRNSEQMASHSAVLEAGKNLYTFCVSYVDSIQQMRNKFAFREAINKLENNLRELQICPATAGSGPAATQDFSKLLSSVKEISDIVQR

On to ARRPMSPKKKA [peptide Ala-Arg-Arg-Pro-Met-Ser-Pro-Lys-Lys-Lys-Ala], for which the Km (µM) of phosphorylation of the peptide by the kinase in the assay with GST-cyclinA/p33^CDK2 amounted to 15 µM; with GST-cyclin B/p33^cdc2, 2.4 µM.
On to EAIYAAPFAKKK [synthetic abl optimal peptide …], for which the Km of phosphorylation of the peptide by the kinase in the assay with GST-c-abl was 4 µM.
On to IEKIGEGTYGVVYKGRHKTT (not fully specified) [synthetic peptide based upon the site of tyrosine phosphorylation on p33^cdc2 (Y15)], for which the Km (µM) of phosphorylation of the peptide by the kinase in assay [1] is 139 µM.
